Experimental data: the nanobody polyreactivity screen of Harvey et al. (2022)

test: yeast display, Sf9 membrane polyspecificity reagent, FACS + sequencing; frameworks hold sequencing errors
Outline: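 A nanobody's polyreactivity label depends on the gate it was sorted from. Yeast display cells were stained with 10% biotinylated, detergent-solubilized Sf9 membrane reagent for 1 hour at 4 °C, enriched on streptavidin microbeads and sorted by FACS. The low and high (top ~1%) gates were set on anti-HA fluorescence for expression and streptavidin fluorescence for reagent binding.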

| Sequence | polyreactivity (PSR sort gate) |
| --- | --- |
| HVQLVESGGGLVQAGGSLRLSCAASGRIFGPNAMGWYRQAPGKERELVAAISSGTGSRTYYADSVKGRFTISRDNAKKTVSLQMISLKPEDTAVYYCAVYSQQVYRWKYRFDYWGQGTQVTVSS | low polyreactivity |
| HVQLVESGGGLVQAGGSLRLSCAASGRIFLRYAMGWYRQAPGKERELVAVISSGGSTYYADSVKGRFTISRDNAKNTVYLQMHSLKPEDSAVYYCAARRHDSRYQYDYWGQGTQVSVSS | high polyreactivity |
| HVQLVESGGGLVQAGGSLRLSCAASGRIFSVYAMGWYRQAPGKEWEFVAAITTNGGSTYYADSVKGRFTISRDNAKNTVYLQMNSLKPEDTAVYYCAAYRSRVNGYRVDYWGQGTQVTVSS | high polyreactivity |
| HVQLVESGGGLVQAGGSLRLSCAASGRILVHNAMGWYRQAPGKERELVAVITARGASTYYADSVKGRFTISRDNAKNSVYLQMNSLKPEDTAVYYCATDKRPKYYNQYDYWGQGTQVTVSS | low polyreactivity |
| HVQLVESGGGLVQAGGSLRLSCAASGRSFYKYAMGWYRQAPGKERELVAAISLRGARTYYADSVKGRFTISRDNATNTVYLQMHSLKPEETAVYYCAADNYYVRYAYNKSYSWGQGTQVTGSS | low polyreactivity |
| HVQLVESGGGLVQAGGSLRLSCAASGRTFSFYVMGWYRQAPGKERELVAAISSSGGRTYYADSVKGRFTISRDNAKNTVYVQMNSLKPEDTAVYYCAVDQPFVSWRLFTQPDSYPRDYWGQGTQVTVSS | low polyreactivity |
| HVQLVESGGGLVQAGGSLRLSCAASGRTLRRNAMGWYRQAPGKERELVAAINYSGANTYYADSVKGRFTISRDNAKNTVYLQMNSLKPEDTAVYYCAAASTSYRGISGGDYWGQGTQVTVSS | high polyreactivity |
| HVQLVESGGGLVQAGGSLRLSCAASGSIFGLYAMGWSRQAPGKEWELVAAITRGDSTNYADSVKGRFTISRDNAKNTVYLQMNSLKPEDTAVYYCNAVYAGWRGGNYWGQGTQVTVSS | low polyreactivity |
| HVQLVESGGGLVQAGGSLRLSCAASGSIFIGNAMGWYRQAPGKERELVAAISKSDGRTYYADSVKGRFTISRDNAKNTVYLQMNSLKPEDTAVYFCAADAYWEPKVGFSLFDYWGQGTQVTVSS | low polyreactivity |
| HVQLVESGGGLVQAGGSLRLSCAASGSIFRGNAMGWYRQAPGKERELVAAISKSGGSTYYADSVKGRFTISRDNAKNTVFVQMNSLKPEDTAVYYCAARTTYLYGMYYWGQGTQVTVSS | low polyreactivity |
| HVQLVESGGGLVQAGGSLRLSCAASGSIFWGNAMGWYRQAAGKERELVAAISWGGGRTYYADSVKGRFTISRDTAKNTVYLQMNSLKPEDTAVYYCNTRYPYVVSTGYDYWGQGTQVTVSS | high polyreactivity |
| HVQLVESGGGLVQAGGSLRLSCAASGSTFSYNAMGWYRQAPGKEWELVAAISWRGTSTYYADSVKGRFTISRDNAKKTVYLQMNSLKPEDTAVYYCAAPYGVSYKGATYDSWGQGTQVTVSS | high polyreactivity |
| HVQLVESGGGLVQAGGSLRLSCAASGSTFTRNAMGWSRQAPGKEWELVAVISSRGGRTYYADSVKGRFTISRDNAKNTVDLQMNSLKPEATAVYYCAARYVIPLGNTYDYWGPGTQVTVSS | high polyreactivity |
| HVQLVESGGGLVQAGGSLRLSCAASGSTFTTNVRGWYRQAPGKERELVAAISWNGASTNYADSVKGRFTISRDNAKNTVYLHMNSLNPEDTAVYYCAADVTGLVWDSYYYYFLYEYEYWGQGTQVTVSS | high polyreactivity |
| HVQLVESGGGLVQAGGSLRLSCADSGRILYYYAMRWYIQEPGKERELVAAINSSGGSPYYADSVKGRFTISRDIAKNTVYLQMNSLKPEDTAVYYGAAEYQVQGYDYWGQGSQVTVSS | high polyreactivity |
| HVQLVESGGGLVQAGGSLRLSCPASGRIFYRNPMGWYRQAPGKERELVAGISKRGGSTYYADSVKGRFTISRDNAKNTVYLQMNSLKPEDTAVYYCATVPYSPPSAGPEYDYWGQGTQVTVSS | high polyreactivity |
| HVQLVESGGGLVQAGGSLRLTCAAYGINFTDYAMGWYRQDPGKEMELVAAISSGGGSTYYADSVKGRFTISLDYAKNTVYLQMNSLKPEDTAVYYCAAEGYLISGAGDYMYDYYWGQGTQVTVSS | high polyreactivity |
